# Experimental data as given in PMC4772073.
# Target: dUltramarine2
# Experiment: SEC; gel filtration chromatography; conditions not given in the main text (Supplementary Fig. 7)
substance,measurement,value
dUltramarine2,stoichiometry N,2
